Data on one molecule can be found in patent US20260028422A1 (CONCEPT TO MEDICINE BIOTECH, published 2026).

The target in one assay is T1, human MerTK-his protein (human, UniProt Q12866 21-505).
T1 construct: extracellular domain; also called hMerTK-His; human MerTK protein
T1 sequence (looked up): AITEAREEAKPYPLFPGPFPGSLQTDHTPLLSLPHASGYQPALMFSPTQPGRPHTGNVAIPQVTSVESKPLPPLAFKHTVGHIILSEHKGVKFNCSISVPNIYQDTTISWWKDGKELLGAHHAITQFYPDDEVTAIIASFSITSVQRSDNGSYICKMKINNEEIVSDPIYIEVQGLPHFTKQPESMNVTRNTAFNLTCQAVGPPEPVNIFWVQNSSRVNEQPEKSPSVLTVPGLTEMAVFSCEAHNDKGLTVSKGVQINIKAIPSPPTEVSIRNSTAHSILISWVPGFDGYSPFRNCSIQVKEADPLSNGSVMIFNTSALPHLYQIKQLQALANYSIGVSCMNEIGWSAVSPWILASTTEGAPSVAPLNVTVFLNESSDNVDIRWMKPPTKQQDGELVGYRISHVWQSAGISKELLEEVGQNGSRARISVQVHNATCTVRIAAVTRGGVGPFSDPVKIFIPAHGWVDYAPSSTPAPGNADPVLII
The experiment in a line: ELISA, coated human MerTK-his. The protocol:
(§1) To evaluate the binding activity, the chimeric mAbs were subjected to ELISA test. Briefly, 96-well plates were coated with human or cyno MerTK-his protein at 2 μg/mL in PBS, 100 μL/well at 4° C. overnight, then blocked with 150 μL/well of 1% BSA. Five-fold dilutions of MerTK antibodies starting from 20 nM were added to each well and incubated for 1 hour at room temperature. The plates were washed with PBS/Tween-20 and then incubated with goat anti-human IgG Fe antibody conjugated with Horse Radish Peroxidase (HRP) for 30 minutes (mins) at room temperature. After washing, the plates were developed with TMB substrate and subsequent stop solution was added to complete the reaction. The signal from each well was read by spectrophotometer at OD 450 nm.
Background: ELISA stands for enzyme-linked immunosorbent assay.

The next assay concerns the target T2, cyno MerTK-his protein (cynomolgus, UniProt A0A2K5V1H9 27-505).
T2 construct: also called cyno MerTK protein; Cynomolgus
T2 sequence: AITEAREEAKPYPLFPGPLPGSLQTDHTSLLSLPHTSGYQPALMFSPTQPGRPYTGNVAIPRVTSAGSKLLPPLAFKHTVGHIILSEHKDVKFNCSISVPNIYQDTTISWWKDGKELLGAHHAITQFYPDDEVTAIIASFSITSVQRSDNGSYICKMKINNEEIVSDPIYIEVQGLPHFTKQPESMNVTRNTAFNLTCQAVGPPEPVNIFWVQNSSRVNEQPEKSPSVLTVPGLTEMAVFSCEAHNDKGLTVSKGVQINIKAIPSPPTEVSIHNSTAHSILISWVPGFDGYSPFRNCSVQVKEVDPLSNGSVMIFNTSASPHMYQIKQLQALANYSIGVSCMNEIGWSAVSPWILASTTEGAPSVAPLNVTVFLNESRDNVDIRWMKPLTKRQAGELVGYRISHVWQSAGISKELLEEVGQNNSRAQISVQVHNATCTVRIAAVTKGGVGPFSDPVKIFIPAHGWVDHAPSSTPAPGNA
The experiment in a line: ELISA, coated cyno MerTK-his. How it is done: as §1

The target of assay [1] is T3, Human MerTK-mouse Fc fusion protein (human, UniProt Q12866 21-499, limits assumed).
T3 construct: also called hMerTK; Human MerTK-mouse Fe fusion protein
T3 sequence (looked up): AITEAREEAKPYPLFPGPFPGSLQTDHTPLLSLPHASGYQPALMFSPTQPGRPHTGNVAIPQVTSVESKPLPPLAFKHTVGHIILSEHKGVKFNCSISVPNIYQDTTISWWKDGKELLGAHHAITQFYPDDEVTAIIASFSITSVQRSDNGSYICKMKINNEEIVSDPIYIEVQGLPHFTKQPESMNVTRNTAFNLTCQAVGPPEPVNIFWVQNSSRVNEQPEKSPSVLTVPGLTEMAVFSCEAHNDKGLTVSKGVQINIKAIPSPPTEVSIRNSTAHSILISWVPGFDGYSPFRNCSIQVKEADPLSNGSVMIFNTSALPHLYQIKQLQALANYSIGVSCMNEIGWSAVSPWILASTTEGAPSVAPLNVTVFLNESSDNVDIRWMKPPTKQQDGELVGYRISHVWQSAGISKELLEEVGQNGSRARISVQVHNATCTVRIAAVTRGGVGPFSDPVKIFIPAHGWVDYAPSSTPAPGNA
The experiment in a line: FACS blocking: binding of human MerTK-mouse Fc to Jurkat cells overexpressing human Gas6, MFI (AF488). The protocol:
To evaluate the blocking effects of anti-hMerTK mAbs on hMerTK binding to its ligand hGas6, a receptor blocking assay was set-up. Briefly, Jurkat cells engineered to overexpress human Gas6 were added to the 96-well microplates at a density of 5×10⁴ cells per well. Human MerTK-mouse Fe fusion protein (50 μL/well, […]) and the MerTK chimeric antibodies with a 3-fold serial dilution starting from 120 nM at a volume of 50 μL were added to the 96-well plates and incubated at 4° C. for 30 mins. After washing with FACS buffer, the plates were incubated with diluted Alex Fluor 488 conjugated goat anti-mouse IgG antibody for 30 mins at 4′C. After washing, the plates were analyzed by QuantAnalyzer 16.

B1: 280C6A3 chimeric monoclonal antibody (antibody, V domains shown)
VH: QVQLQQSGPELVKPGASVKLSCKASGYSFTTYDINWVKQRPGQGLEWIGWIYPRDGSTKYNEKFKGKATLTLDTSSNTAYMGLHSLTSEDSAVYFCARGYYDNLYYFDYWGQGTTLTVSS
VL: EIVLTQSPTTMAASPGEKITITCSASSSVSSNYLHWYQQKPGFSPKLLIYRTSNLASGVPARFSGSGSGTSYSLTIGTMEAEDVATYYCQQGRIVPLTFGAGTKLELK
On to B1, for which the 50% effective concentration (EC50) in the assay with human MerTK-his protein was 0.012 nM; with cyno MerTK-his protein, 0.014 nM. Also, the IC50 in assay [1] came out at 0.701 nM.

What is called EC50 is the concentration that produces a half-maximal response. The low end stands for a more potent agent, the high end for a less potent agent. In general, IC50 refers to the point on the concentration scale where inhibition reaches its midpoint. Read a high IC50 as a need for much substance.
